Measured values taken from patent US20200148768A1 (STCUBE, published 2020).

T1: human BTN1A1 wild type, expressed on cells (human, UniProt Q13410 27-526, glycosylated at N55 and N215 (extracellular))
T1 construct: also as whole-cell lysate in western blots; also called BTN1A1 WT
T1 sequence: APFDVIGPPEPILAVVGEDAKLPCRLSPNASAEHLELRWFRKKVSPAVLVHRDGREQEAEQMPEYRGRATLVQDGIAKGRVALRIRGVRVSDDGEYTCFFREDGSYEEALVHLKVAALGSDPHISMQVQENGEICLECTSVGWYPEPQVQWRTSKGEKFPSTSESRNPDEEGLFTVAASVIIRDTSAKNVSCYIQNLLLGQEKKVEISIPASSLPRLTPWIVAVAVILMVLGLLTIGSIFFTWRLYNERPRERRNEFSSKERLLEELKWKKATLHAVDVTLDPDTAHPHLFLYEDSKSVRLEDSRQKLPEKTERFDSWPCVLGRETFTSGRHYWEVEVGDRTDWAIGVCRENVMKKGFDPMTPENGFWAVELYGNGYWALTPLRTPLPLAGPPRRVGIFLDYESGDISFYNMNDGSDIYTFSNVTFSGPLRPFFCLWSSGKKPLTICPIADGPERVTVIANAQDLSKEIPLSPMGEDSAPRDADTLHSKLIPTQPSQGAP

T2: mouse BTN1A1-ECD-Fc (mouse; human, UniProt Q62556 27-247)
T2 construct: also called human IgG1-Fc-tagged mouse BTN1A1-ECD (dimer); mBTN1A1-Fc
T2 chain: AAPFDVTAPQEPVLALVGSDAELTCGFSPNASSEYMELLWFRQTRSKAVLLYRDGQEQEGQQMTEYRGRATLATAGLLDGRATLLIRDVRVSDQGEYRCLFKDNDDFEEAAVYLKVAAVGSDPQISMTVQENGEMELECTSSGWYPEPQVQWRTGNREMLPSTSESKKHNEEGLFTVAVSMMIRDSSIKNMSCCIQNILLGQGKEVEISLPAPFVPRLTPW

T3: human BTN1A1-ECD-His6 (human, UniProt Q13410 27-242, N-glycosylated (PNGase F sensitive))
T3 construct: also called BTN1A1-His; hBTN1A1-His
T3 sequence: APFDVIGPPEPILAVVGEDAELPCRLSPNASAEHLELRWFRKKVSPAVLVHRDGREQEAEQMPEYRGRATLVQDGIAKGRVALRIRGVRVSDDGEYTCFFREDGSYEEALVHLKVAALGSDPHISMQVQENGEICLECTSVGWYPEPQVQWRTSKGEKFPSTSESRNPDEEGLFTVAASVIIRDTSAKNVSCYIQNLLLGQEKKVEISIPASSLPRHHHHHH


Columns and labels:
human BTN1A1-ECD-Fc [1] = biological target: T4, human BTN1A1-ECD-Fc (human, N-glycosylated (PNGase F sensitive)); test: Octet BLI, anti-mouse Fc capture
T4 construct: also called BTN1A1-Fc; hBTN1A1-Fc
Description: Using a biosensor coated with anti-mouse Fc capture antibody, KD was determined by Kon and Koff. Antibodies with higher affinity (nanomolar range) were selected. Epitope binning is also used to categorize the epitope binding characteristics of panels of antibodies against a single target. This epitope binning experiment was designed to determine whether two different antibodies bind to the same epitope. If two antibodies bind to the same epitope of the antigen, then the binding of the first antibody will preclude the binding if the second antibody. If each antibody in a tested pair binds to a completely independent epitope, then binding of the first antibody will have no effect on the binding of the second. Through repeated testing, the antibodies are grouped according to epitope binding specificity. This experiment was performed using the Octet Red96 System (Pall ForteBio) with Bio-Layer Interferometry (BLI) to detect and analyze the interaction of biological molecules. Antigen was bound to the disposable sensors, then additional binding of antibody to the antigen was measured by change in delay of the reflection of the light passing through the sensor. A longer delay is indicative of more mass bound to the sensor, and this value is used to determine the degree of protein-antibody interaction.

human BTN1A1-ECD-Fc [2] = biological target: T4, human BTN1A1-ECD-Fc; test: direct ELISA, coated BTN1A1-Fc, native Ag
Description: In order to exclude the possibility that the observed binding was due to human Fc binding, ELISA was performed using human BTN1A1-Fc and human IgG1 control. The antigens BTN1A1-Fc and human IgG1 were coated onto ELISA plate. Antibodies were added to each well and binding was for each antibody determined by standard direct ELISA against the antigens. Human IgG1 binding antibodies were excluded from the candidates.

[3] = biological target: T1, human BTN1A1 wild type, expressed on …; test: FACS, HEK293T overexpressing BTN1A1, FITC secondary
Description: To identify anti-BTN1A1-Fc MAbs that were specific for and which preferentially bound human BTN1A1-Fc antigen, different types of assays were performed. In a screening assay to detect preferential binding of MAbs to BTN1A1, antibody binding was determined based on the measurement of fluorescence intensity through FACS analysis (using cell membrane bound proteins). By way of example, the assay was performed using the HEK293T human embryonic kidney cell line. Illustratively, HEK293T cells overexpressing BTN1A1 were incubated with anti-BTN1A1 antibodies existing in hybridoma culture supernatant. After washing, secondary antibodies conjugated with FITC were added as detection agent. Fluorescence intensity (measured fluorescence intensity, MFI) was measured via FACS I flow cytometry analysis to assess the relative binding of the anti-BTN1A1 antibodies to membrane bound BTN1A1 WT on cells. […] Based on the binding analysis, sixty seven candidate MAb-producing hybridomas were selected, grown in ADCF medium, and their supernatant containing monoclonal antibody was concentrated and purified.

human BTN1A1-ECD-Fc [4] = biological target: T4, human BTN1A1-ECD-Fc; test: direct ELISA, coated BTN1A1-Fc, denatured Ag
human BTN1A1-ECD-Fc [5] = biological target: T4, human BTN1A1-ECD-Fc; test: SPR (Biacore)
Description: (§1) An mIgG capture chip (BIAcore™) was coated with antibody with 600 response units (RU) and BTN1A1-ECD was injected into the microfluidic channel. KD values were obtained using fitting tools of the BIAevaluation software (BIAcore). FIGS. 22A-F provide sensograms showing real-time binding of dimeric BTN1A1-ECD-Fc (2-64 nM with 2-fold dilution; FIGS. 22A, C, and E) or of monomeric BTN1A1-ECD-His (2-64 nM with 2-fold dilution; FIGS. 22B, D, and F) to STC703, STC810, or STC820 immobilized on an mIgG capture CMS chip. Flow cells without any immobilized protein were used as the controls for non-specific binding and control cell signals were subtracted from test cell signals to produce the sensograms shown in FIGS. 22A-F.
(§2) The KD values for BTN1A1-ECD-Fc or BTN1A1-ECD-His binding to STC703, STC810, and STC820 as measured by Biacore assays are provided in Table 17 below.

human BTN1A1-ECD-Fc [6] = biological target: T4, human BTN1A1-ECD-Fc; test: SPR (Biacore), antibody on mIgG capture chip, BTN1A1-ECD-Fc 2-64 nM
Description: as §1, §2

[7] = biological target: T1, human BTN1A1 wild type, expressed on …; test: FACS, 293T BTN1A1 WT against 2NQ
Description: The glyco-specificity of monoclonal anti-BTN1A1 antibodies was characterized by dot blot analysis. Each anti-BTN1A1 mAb (0.5 μg/well loaded) was tested for binding to glycosylated BTN1A1 (PNGaseF “−”) or deglycosylated BTN1A1 (PNGaseF “+”). Non-specific antibody controls (“IgG,” 0.25 μg/well loaded) was also included in the assay. As shown in FIGS. 19A-19B, both glycosylated BTN1A1 protein and non-glycosylated BTN1A1 (BTN1A1 protein treated with PNGase F) were coated on the solid phase and tested for mAb and antigen binding affinity. […] The glyco-specificity of monoclonal anti-BTN1A1 antibodies was also characterized by FACS analysis. […] After further washing, fluorescence intensity (MFI) was measured to assess relative binding of antibodies to membrane-bound glycosylated or unglycosylated BTN1A1. […] See, e.g., FIGS. 21A-C and Table 16.

mouse BTN1A1-ECD-Fc = biological target: T2, mouse BTN1A1-ECD-Fc; test: SPR (Biacore X-100), antibody captured on chip, mouse BTN1A1-ECD-Fc 2-64 nM
Description: The binding affinity between BTN1A1 and monoclonal anti-BTN1A1 antibodies STC1011, STC1012, and STC1029 was measured by Surface Plasmon Resonance (BIAcore™). Sensorgrams and saturation curves of antibody titrations of with human IgG1-Fc-tagged mouse BTN1A1-ECD (dimer) were recorded.
An Protein capture chip (BIAcore™) was coated with STC1011, STC1012, STC1029, or a control IgG1 antibody. No interaction between the IgG1 control and mouse BTN1A1-His was observed. Mouse BTN1A1-ECD-Fc was injected into the microfluidic channel on a Biacore™ X-100 instrument. KD values were obtained using fitting tools of the BIAevaluation software (BIAcore). FIGS. 29A-C provide sensograms showing real-time binding of dimeric BTN1A1-ECD-Fc (2-64 nM with 2-fold dilution) to immobilized STC1011, STC1012, and STC1029.

human BTN1A1-ECD-His6 = biological target: T3, human BTN1A1-ECD-His6; test: western blot after SDS-PAGE, native lanes (no DTT, no boiling) and reduced lanes (DTT, boiling)
Excerpt: FIG. 34—Dimer-specific binding of BTN1A1 antibody. FIG. 34 first panel from the left is an image of Coomassie blue stained SDS-PAGE gel, showing locations of monomer and dimer forms of the BTN1A1 protein in both native and reduced conditions along with a size standard. The second through fifth panels show western blots visualizing the monomer and dimer forms of the BTN1A1 protein in both native and reduced conditions using STC810, STC2602, STC2714 and STC 2781 antibody, respectively.
To determine the conformational specificity, Western blot analysis was performed using both dimer form of BTN1A1 (Fc fusion protein extracellular domain of BTN1A1) and monomer form of BTN1A1 (His-tagged protein of extracellular domain of BTN1A1). Proteins were treated with DTT (a reducing agent) and boiling or without reducing and denaturing by boiling. After running the proteins on SDS-PAGE, Western blot was performed by a standard protocol (FIG. 34). In a native condition (without a reducing agent and boiling), STC2714 recognized only Fc fusion protein, a dimerized form of BTN1A1 ECD, but not His-tagged protein, a monomer form of BTN1A1 ECD.

Binder	Kd (human BTN1A1-ECD-Fc [1]) [nM]	ELISA (Native Ag) (human BTN1A1-ECD-Fc [2])	FACS (MFI) [3]	ELISA (Denatured Ag) (human BTN1A1-ECD-Fc [4])	Kd (mouse BTN1A1-ECD-Fc) [nM]	koff (mouse BTN1A1-ECD-Fc) [s⁻¹]	kon (mouse BTN1A1-ECD-Fc) [M⁻¹ s⁻¹]	further results
STC810 (antibody, V domains shown, mouse monoclonal; kappa; also called mouse monoclonal anti-human BTN1A1 antibody STC810) VH: EVQLQQSGPELVKPGASVKISCKASGYTFTHYNMDWVKQSHGKSLEWIGYIYPSNGGTGYNQKFKSRATLTVDKSSSTAYMELHSLTSEDSAVYYCARGAYHYGSSYAYWYFDVWGAGTTVTVSS VL: DIQMTQTTSSLSASLGDRVTISCSASQDISNYLNWYQQKPDETVKLLISYTSSLHSGVPSRFSGSGSGTDYSLTISNLAPEDIATYYCQQSSKLPFTFGSGTELEIKR	–	–	–	–	–	–	–	fold higher affinity than to monomeric BTN1A1-ECD-His (human BTN1A1-ECD-Fc [5]): > 100 fold; Kd (human BTN1A1-ECD-Fc [6]): 0.92 nM; fold MFI on glycosylated over unglycosylated BTN1A1 [7]: ≥ 2 fold
STC1012 (antibody, V domains shown, kappa; pHrodo-labeled in the internalization assay; also called mouse monoclonal anti-mouse BTN1A1 antibody STC1012) VH: EVMLVESGGALVKPGGSLKLSCAASGFTFSNYVMSWVRQTPEKRLEWVATISSGGSYTNYPDSVKGRFIISRDNARNTLYLQMSSLRSEDTAIYYCVREGDGFYVFDYWGLGTTLTVSS VL: not shown	–	–	–	–	4.1	0.000599	146000	–
STC2602 (antibody, V domains shown) VH: EVQLQQSGPELVKPGASVKISCKASGFSFIGYYIDWVKQSPGKSLEWIGYIYPSNGETSYHQKCKGKATLTVDKSSSTVNMQLNSLTSEDSAVYYCARYGNYDWFFDVWGAGTTVTVSS VL: QIVLTQSPAIMSASPGEKVTITCSASSSVSYMHWFQQKPGTSPKFWIYSTSNLASGVPIRFSGSGSGTSYSLTISRMEAEDAATYYCQQRSSYPYTFGGGTKLEIK	2.35	1.39	69.5	0.128	–	–	–	binding result (human BTN1A1-ECD-His6): no binding
STC1029 (antibody, V domains shown, kappa; also called mouse monoclonal anti-mouse BTN1A1 Antibody STC1029) VH: EVQLQQSGPELVKPGASVKISCKASGYSFTGYFMNWVKQSHGKSLEWIGRINPYNGDTFYNQKFKDKATLTVDTSSSTAHMELRSLTSEESAVYYCARWTTVINFDYWGQGTTLTVSS VL: SIVMTQTPKFLLVSAGDRVTITCKASQSVSYDVVWYQQKPGQSPKLLMYYVSNRYTGVPDRFTGSGYGTDFTFTISTVQAEDLAVYFCQQDYSSPPTFGGGTKLEIK	–	–	–	–	1.69	0.000427	251000	–

More lines, main results first:

Kd (human BTN1A1-ECD-Fc [1]) [nM]	ELISA (Native Ag) (human BTN1A1-ECD-Fc [2])	FACS (MFI) [3]	ELISA (Denatured Ag) (human BTN1A1-ECD-Fc [4])	Kd (mouse BTN1A1-ECD-Fc) [nM]	koff (mouse BTN1A1-ECD-Fc) [s⁻¹]	kon (mouse BTN1A1-ECD-Fc) [M⁻¹ s⁻¹]	Binder	further results
0.436	1.8	2340	1.44	–	–	–	STC2778 (antibody, V domains shown) VH: QIQLVQSGPELKKPGETVKISCKASGYSFTNYGMNWVKQAPGKGLKWMGWINIYTGETTYGDDFKGRFAFSLETSASTAYLQINNLRSEDTATYFCVRGGTMIMYWGQGTTLTVSS VL: DIVLTQSPATLSVTPGDSVSLSCRASQSISNNLHWHQQKSHESPRLLIKYASQSMSGIPSRFSGSGSGTDFTLSINSVETEDFGMYFCQQSDSWPLTFGAGTKLELK	–
0.0885	0.956	841	0.418	–	–	–	STC2739 (antibody, V domains shown) VH: QVQLKQSGPGLVQPSQSLSITCTVSGFSLTTHGVNWVRQSPGKGLEWLGVIWSGGSTDYNAAFISRLSISKDNSKSQVFFKMNSLQANDTAIYYCARPYYYGAMDYWGQGTSVTVSS VL: QIVLTQSPSIMSASPGEKVTITCSASSSVSYIHWFQQKPGTSPKLWIYSTSNLASGVPARFSGSGSGTSYSLTISRMEAEDAATYYCQQRSIYPLTFGAGTKLELK	–
